One data set concerns the target MERTK (UniProt Q12866). As to the kind of experiment: phosphorylation enrichment, bacterial display (enrichment ratio); higher = better substrate or ligand; peptides without Tyr show the background.
Another data set concerns c-Abl (mouse). The data set is described as above.
The target of a further data set is Hck (UniProt P08631). The data set is described as above.
The target of a further data set is Fes (UniProt P07332). The data set is described as above.
In the next data set the target is EPHB2 (UniProt P29323). The data set is described as above.
In the next data set the target is EPHB1 (UniProt P54762). The description is as above.
Another data set concerns AncSZ. Described as above.
The next data set deals with FGFR3 (UniProt P22607). Described as above.
Chain of FGFR3 (P22607 whole entry, looked up): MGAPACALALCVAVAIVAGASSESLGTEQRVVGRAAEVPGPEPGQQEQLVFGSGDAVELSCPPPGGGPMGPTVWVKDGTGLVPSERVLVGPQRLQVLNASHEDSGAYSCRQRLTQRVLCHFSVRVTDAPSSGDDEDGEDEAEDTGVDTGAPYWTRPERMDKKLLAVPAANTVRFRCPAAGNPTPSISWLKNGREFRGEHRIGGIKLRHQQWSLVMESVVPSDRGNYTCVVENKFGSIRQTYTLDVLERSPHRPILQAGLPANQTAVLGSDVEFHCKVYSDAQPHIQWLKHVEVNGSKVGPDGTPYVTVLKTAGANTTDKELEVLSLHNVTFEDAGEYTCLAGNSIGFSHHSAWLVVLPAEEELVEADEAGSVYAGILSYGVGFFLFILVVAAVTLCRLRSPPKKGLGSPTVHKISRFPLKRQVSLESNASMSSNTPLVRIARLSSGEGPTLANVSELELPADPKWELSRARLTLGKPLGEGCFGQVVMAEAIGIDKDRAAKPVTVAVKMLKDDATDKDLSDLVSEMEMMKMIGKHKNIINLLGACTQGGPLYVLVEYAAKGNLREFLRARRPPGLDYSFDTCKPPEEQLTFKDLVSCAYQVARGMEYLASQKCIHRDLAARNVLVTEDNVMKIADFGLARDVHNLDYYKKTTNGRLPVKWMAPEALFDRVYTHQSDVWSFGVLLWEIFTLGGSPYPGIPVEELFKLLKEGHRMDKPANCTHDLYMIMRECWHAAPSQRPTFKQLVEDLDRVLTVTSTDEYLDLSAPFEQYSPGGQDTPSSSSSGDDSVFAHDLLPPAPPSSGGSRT
The target in a further data set is FGFR1 (UniProt P11362). The data set is described as above.
Chain of FGFR1 (P11362 whole entry, looked up): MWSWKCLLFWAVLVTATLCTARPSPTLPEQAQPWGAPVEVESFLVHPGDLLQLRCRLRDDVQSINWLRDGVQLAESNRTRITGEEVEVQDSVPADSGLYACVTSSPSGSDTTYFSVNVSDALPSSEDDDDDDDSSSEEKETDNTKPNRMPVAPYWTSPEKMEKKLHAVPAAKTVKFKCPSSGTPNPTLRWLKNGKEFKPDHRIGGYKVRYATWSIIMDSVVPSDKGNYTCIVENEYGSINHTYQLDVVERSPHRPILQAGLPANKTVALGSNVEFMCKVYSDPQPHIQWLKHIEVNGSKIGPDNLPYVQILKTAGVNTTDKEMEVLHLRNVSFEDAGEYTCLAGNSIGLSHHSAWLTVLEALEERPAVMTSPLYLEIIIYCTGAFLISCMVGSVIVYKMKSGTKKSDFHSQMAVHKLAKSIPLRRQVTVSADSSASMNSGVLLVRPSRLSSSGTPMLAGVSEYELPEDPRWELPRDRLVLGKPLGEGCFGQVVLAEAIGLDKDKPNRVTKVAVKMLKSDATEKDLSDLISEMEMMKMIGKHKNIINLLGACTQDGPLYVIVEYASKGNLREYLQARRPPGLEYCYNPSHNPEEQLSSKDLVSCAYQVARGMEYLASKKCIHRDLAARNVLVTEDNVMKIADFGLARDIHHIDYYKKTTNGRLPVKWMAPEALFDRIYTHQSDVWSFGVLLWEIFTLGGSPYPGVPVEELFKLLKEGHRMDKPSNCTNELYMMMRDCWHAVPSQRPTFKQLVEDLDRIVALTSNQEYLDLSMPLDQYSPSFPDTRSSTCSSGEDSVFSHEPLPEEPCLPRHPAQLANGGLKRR
The next data set deals with Fer (mouse). Described as above.
A further data set concerns c-Src. Described as above.
For a further data set, the target named is Jak2 (UniProt O60674). The data set is described as above.
Chain of Jak2 (O60674 whole entry, looked up): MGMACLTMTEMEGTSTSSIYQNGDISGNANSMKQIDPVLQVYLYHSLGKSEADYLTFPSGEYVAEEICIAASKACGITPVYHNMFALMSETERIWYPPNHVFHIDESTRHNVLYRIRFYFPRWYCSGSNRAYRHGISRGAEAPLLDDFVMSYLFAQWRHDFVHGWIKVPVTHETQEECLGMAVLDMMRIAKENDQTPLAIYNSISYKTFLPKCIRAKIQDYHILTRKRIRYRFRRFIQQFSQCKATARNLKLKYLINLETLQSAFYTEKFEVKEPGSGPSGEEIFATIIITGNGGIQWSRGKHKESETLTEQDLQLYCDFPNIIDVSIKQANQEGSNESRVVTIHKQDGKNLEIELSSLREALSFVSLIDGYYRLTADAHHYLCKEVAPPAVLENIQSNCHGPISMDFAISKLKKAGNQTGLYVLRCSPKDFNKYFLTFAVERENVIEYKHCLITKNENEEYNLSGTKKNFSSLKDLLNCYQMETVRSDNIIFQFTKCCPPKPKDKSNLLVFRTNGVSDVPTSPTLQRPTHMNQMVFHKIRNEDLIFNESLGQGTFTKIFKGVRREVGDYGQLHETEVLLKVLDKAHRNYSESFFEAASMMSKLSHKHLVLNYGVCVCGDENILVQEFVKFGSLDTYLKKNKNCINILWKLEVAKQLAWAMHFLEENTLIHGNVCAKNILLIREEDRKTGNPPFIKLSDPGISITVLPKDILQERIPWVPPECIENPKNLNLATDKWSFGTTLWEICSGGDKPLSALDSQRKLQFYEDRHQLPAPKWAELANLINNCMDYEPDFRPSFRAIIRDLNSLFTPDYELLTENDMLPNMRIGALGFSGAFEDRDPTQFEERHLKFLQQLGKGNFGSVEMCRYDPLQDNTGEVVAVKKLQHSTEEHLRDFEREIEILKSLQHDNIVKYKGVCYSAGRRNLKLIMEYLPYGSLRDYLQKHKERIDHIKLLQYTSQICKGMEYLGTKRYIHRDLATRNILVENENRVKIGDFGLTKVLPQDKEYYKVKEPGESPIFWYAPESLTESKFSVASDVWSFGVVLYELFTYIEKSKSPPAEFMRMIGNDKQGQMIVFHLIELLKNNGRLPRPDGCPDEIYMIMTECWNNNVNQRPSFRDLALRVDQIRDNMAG
The target of a further data set is Fyn (UniProt P06241). Described as above.
Chain of Fyn (P06241 whole entry, looked up): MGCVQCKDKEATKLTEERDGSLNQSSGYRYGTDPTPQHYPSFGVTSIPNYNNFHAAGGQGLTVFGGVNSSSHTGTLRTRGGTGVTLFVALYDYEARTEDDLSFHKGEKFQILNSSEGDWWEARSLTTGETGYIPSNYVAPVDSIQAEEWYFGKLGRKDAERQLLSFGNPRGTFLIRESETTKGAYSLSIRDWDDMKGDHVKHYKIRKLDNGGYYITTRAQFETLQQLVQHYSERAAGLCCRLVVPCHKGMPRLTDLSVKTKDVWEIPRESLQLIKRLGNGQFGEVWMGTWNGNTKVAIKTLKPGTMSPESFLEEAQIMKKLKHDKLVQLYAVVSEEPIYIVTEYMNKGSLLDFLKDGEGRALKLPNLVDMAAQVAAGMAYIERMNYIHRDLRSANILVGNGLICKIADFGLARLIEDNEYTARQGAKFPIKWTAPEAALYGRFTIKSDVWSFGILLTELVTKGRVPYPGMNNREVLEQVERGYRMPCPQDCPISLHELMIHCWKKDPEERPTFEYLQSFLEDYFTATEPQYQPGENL
For the next data set, the target named is SHP2-C SH2. As to the kind of experiment: SH2 binding enrichment of the phosphorylated peptide, bacterial display (enrichment ratio); higher = better substrate or ligand; peptides without Tyr show the background.
Another data set addresses Grb2 SH2 (UniProt P62993). The data set is described as above.
The next data set addresses c-Src SH2. The data set is described as above.

Our source for the phosphorylation enrichment and SH2 binding enrichment values is the supplement of paper PMC10065799, “High-throughput profiling of sequence recognition by tyrosine kinases and SH2 domains using bacterial peptide display” (eLife, 2023).
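For SH2 binding enrichment of the phosphorylated peptide, bacterial display in this document: peptide library displayed on the E. coli surface as eCPX fusions, selected cells deep-sequenced, score is each peptide's frequency after selection divided by its frequency in the input.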
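For phosphorylation enrichment, bacterial display in this document: 11-residue human phosphosite peptides and single-mutation variants displayed on the E. coli surface, counted by deep sequencing, each peptide's frequency after selection divided by its frequency in the unselected input library; frequency after pTyr selection over input frequency; kinase dosed for 20-30% of maximal phosphorylation in three min.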

Chain of Grb2 SH2 (P62993 whole entry, looked up): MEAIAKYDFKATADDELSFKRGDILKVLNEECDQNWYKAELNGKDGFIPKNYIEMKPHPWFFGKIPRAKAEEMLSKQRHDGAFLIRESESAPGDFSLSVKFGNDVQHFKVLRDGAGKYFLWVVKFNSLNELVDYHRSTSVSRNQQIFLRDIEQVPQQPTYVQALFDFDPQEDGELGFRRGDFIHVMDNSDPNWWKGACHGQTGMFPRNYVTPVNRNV
Chain of Fes (P07332 whole entry, looked up): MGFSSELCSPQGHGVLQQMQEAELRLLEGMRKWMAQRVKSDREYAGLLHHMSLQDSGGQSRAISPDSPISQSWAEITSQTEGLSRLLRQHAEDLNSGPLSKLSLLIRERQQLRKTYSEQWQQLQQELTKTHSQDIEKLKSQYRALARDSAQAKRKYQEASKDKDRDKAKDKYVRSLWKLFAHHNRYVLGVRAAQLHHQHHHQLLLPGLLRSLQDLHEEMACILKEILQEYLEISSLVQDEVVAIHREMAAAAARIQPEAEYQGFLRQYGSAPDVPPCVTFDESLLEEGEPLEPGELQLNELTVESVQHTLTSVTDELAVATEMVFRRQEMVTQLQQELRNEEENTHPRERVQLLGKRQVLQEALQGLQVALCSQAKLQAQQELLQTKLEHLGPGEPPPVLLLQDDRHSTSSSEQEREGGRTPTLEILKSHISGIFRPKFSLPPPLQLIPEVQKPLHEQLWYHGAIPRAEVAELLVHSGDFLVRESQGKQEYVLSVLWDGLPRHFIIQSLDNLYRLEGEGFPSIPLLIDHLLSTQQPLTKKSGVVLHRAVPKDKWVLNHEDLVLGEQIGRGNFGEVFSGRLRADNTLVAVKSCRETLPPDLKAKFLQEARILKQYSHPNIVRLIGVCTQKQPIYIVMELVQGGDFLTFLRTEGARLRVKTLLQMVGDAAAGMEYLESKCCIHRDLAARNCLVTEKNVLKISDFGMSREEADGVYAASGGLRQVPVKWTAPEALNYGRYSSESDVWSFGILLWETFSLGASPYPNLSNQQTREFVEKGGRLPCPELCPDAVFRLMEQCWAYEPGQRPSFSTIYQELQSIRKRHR
Chain of Hck (P08631 whole entry, looked up): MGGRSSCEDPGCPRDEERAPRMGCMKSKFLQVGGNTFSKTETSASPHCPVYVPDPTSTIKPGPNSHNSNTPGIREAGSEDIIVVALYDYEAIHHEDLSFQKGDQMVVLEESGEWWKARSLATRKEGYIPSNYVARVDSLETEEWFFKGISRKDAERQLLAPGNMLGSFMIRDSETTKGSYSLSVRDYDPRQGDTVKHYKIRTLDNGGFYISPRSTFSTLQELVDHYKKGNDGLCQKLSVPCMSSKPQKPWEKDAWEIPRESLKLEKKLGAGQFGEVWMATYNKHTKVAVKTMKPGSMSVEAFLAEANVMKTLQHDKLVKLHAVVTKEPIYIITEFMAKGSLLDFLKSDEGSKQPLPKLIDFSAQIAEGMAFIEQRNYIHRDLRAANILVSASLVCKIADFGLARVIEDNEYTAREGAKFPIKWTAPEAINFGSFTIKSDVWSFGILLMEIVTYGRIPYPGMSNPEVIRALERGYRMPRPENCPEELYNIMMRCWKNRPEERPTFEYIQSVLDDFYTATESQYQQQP

With GQAPGYSYTAA [CYCS_Y47], the phosphorylation enrichment came out at 0.438 in the data set with MERTK; 0.56 in the data set on c-Abl (mouse); 0.502 with Hck; 0.665 with Fes; 0.5 with EPHB2; 0.483 with EPHB1. Besides, the phosphorylation enrichment with AncSZ is 0.601; with FGFR3, 0.481; with FGFR1, 0.43; with Fer (mouse), 0.433; in the data set on c-Src, 0.416; with Jak2 it was 0.615. Besides, in the data set with Fyn, the phosphorylation enrichment was 0.471. Further, the SH2 binding enrichment in the data set with SHP2-C SH2 was 0.659; in the data set with Grb2 SH2 it was 0.873; with c-Src SH2 it was 0.791.

Turning to RGVAHYILQTF [SLC39A4_Y359_T357A], the phosphorylation enrichment came to 0.583 with MERTK; 1.13 with c-Abl (mouse); 0.685 in the data set with Hck; 1.34 with Fes; 0.724 with EPHB2; 0.718 with EPHB1. The phosphorylation enrichment came to 1.48 in the data set on AncSZ; 0.628 in the data set with FGFR3; 0.456 with FGFR1; 0.554 in the data set on Fer (mouse); 0.743 with c-Src; 1.33 with Jak2. Further, in the data set with Fyn, the phosphorylation enrichment was 0.636. In addition, the figures for the SH2 binding enrichment in the data set with SHP2-C SH2, in the data set with Grb2 SH2 and in the data set with c-Src SH2 were 1.71, 1.73 and 1.16, respectively.

Regarding GGQVFHNSEFG [FLT4_Y1333_Y1333H_YF], the phosphorylation enrichment was 0.395 with MERTK; 0.531 with c-Abl (mouse); 0.379 with Hck; 0.668 in the data set with Fes; 0.451 in the data set with EPHB2; 0.4 in the data set with EPHB1. The phosphorylation enrichment with AncSZ amounted to 0.593; with FGFR3 it was 0.572; with FGFR1 it was 0.448; with Fer (mouse), 0.375; with c-Src it was 0.377; with Jak2 it was 0.534. Also, the phosphorylation enrichment in the data set with Fyn amounted to 0.424. Further, the SH2 binding enrichment is 0.714 with SHP2-C SH2, 0.761 in the data set with Grb2 SH2 and 0.505 with c-Src SH2.

As to GTTIHYNFMCN [TP53_Y234_C229G_YF], the phosphorylation enrichment with MERTK was found to be 0.465; with c-Abl (mouse), 0.888; in the data set with Hck, 0.532; in the data set with Fes, 1.32; in the data set with EPHB2, 0.718; in the data set with EPHB1, 0.743. Further, the phosphorylation enrichment with AncSZ came out at 1.12; in the data set with FGFR3 it was 0.822; with FGFR1, 0.544; in the data set with Fer (mouse), 0.63; in the data set on c-Src, 0.467; in the data set with Jak2, 1.13. In addition, in the data set with Fyn, the phosphorylation enrichment was 0.477. Also, the figures for the SH2 binding enrichment with SHP2-C SH2, with Grb2 SH2 and with c-Src SH2 were 0.613, 0.715 and 0.603, respectively.

Consider ADFPDCKFRPR [SOX11_Y116_Y116C_YF], for which the phosphorylation enrichment in the data set with MERTK came to 0.391; in the data set with c-Abl (mouse) it was 0.744; with Hck it was 0.545; with Fes, 0.983; in the data set with EPHB2 it was 0.409; with EPHB1 it was 0.488. Moreover, the phosphorylation enrichment in the data set with AncSZ worked out at 0.783; with FGFR3 it was 0.616; in the data set with FGFR1 it was 0.532; with Fer (mouse), 0.412; with c-Src, 0.465; with Jak2 it was 0.965. In addition, in the data set with Fyn, the phosphorylation enrichment stood at 0.395. The SH2 binding enrichment in the data set with SHP2-C SH2 was found to be 0.996; in the data set with Grb2 SH2 it was 1.05; in the data set with c-Src SH2 it was 1.19.

On to EAEPFYRSLRD [NPHS1_Y1139_YF], for which the phosphorylation enrichment in the data set with MERTK worked out at 0.539; in the data set on c-Abl (mouse), 0.743; in the data set with Hck, 0.644; in the data set with Fes, 1.18; with EPHB2, 0.545; in the data set with EPHB1, 0.461. The phosphorylation enrichment in the data set on AncSZ was 0.792; with FGFR3, 0.707; with FGFR1, 0.536; in the data set with Fer (mouse), 0.451; with c-Src, 0.53; with Jak2 it was 0.893. For the same sequence, the phosphorylation enrichment with Fyn was 0.433. Further, the SH2 binding enrichment was determined as 0.628 in the data set with SHP2-C SH2, 1.19 with Grb2 SH2 and 0.521 in the data set with c-Src SH2.

For the sequence VPVPGYTKVPE [SPRR3_Y146_L149V], the phosphorylation enrichment with MERTK was found to be 0.501; in the data set with c-Abl (mouse) it was 0.615; in the data set with Hck, 0.526; with Fes it was 0.75; with EPHB2, 0.541; with EPHB1, 0.365. Besides, the phosphorylation enrichment is 0.776 in the data set with AncSZ; 0.789 with FGFR3; 0.437 in the data set with FGFR1; 0.525 with Fer (mouse); 0.398 in the data set on c-Src; 0.769 in the data set with Jak2. Further, the phosphorylation enrichment in the data set with Fyn was 0.494. The SH2 binding enrichment in the data set with SHP2-C SH2 was 0.581; with Grb2 SH2, 0.81; in the data set with c-Src SH2, 0.56.

For ETKKQYNSFTY [TMED3_Y85_D86N], the phosphorylation enrichment in the data set with MERTK was found to be 0.463; with c-Abl (mouse), 0.435; with Hck, 0.423; in the data set with Fes, 0.753; in the data set with EPHB2, 0.434; with EPHB1, 0.436. In addition, the phosphorylation enrichment is 0.617 with AncSZ; 0.455 with FGFR3; 0.496 in the data set with FGFR1; 0.434 in the data set with Fer (mouse); 0.491 in the data set on c-Src; 0.54 with Jak2. Moreover, the phosphorylation enrichment with Fyn stood at 0.592. Besides, the SH2 binding enrichment with SHP2-C SH2 came out at 0.704; with Grb2 SH2 it was 1.1; in the data set with c-Src SH2, 1.03.

As for LAAPKYKLNVD [SMARCA2_Y1190_A1188P], the phosphorylation enrichment was found to be 0.346 in the data set with MERTK; 0.422 with c-Abl (mouse); 0.551 in the data set with Hck; 0.961 with Fes; 0.307 with EPHB2; 0.205 with EPHB1. Besides, the phosphorylation enrichment is 0.46 in the data set on AncSZ; 0.518 with FGFR3; 0.258 with FGFR1; 0.291 in the data set on Fer (mouse); 0.44 in the data set on c-Src; 0.353 with Jak2. The phosphorylation enrichment in the data set with Fyn is 0.546. Also, the values for the SH2 binding enrichment with SHP2-C SH2, with Grb2 SH2 and in the data set with c-Src SH2 were 0.592, 0.713 and 0.325, respectively.
